Consider one molecule from PMC7610691 (Nature structural & molecular biology, 2020).

This test deals with T1, Smc2 (S. cerevisiae condensin subunit) (S. cerevisiae, UniProt P38989 1-1170).
T1 sequence: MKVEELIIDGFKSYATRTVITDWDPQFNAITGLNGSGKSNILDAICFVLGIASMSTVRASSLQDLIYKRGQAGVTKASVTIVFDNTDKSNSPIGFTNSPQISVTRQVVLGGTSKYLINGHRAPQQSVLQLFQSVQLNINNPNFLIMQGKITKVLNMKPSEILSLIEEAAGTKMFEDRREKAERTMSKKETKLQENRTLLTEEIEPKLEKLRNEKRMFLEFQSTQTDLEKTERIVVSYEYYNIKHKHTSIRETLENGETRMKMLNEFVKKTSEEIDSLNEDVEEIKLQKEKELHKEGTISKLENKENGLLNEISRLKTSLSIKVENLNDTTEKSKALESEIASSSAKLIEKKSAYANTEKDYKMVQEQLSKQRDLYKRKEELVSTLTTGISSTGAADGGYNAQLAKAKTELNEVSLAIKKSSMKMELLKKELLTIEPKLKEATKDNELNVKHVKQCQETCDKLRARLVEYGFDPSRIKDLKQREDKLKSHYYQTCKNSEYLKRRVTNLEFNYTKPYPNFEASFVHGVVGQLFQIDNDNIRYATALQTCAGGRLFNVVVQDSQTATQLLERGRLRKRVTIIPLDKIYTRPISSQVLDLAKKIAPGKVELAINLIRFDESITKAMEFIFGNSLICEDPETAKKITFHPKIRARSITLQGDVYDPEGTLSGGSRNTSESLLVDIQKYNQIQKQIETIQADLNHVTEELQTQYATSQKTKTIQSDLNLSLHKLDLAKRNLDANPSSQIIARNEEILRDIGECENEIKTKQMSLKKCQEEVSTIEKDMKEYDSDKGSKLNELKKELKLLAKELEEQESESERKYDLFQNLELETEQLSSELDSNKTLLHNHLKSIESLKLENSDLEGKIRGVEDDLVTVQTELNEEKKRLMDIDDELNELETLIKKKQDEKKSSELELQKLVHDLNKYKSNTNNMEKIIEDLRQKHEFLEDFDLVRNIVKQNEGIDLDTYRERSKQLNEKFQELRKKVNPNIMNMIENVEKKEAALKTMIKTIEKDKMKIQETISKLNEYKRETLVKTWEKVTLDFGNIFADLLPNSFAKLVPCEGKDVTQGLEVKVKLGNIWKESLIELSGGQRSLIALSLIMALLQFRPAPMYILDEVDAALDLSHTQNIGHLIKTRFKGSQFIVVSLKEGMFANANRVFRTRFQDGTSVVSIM
The test is described as follows: cryo-EM structure.

B1: Ycg1 (S. cerevisiae condensin HEAT-repeat subunit) (natural protein)
chain: MQDPDGIDINTKIFNSVAEVFQKAQGSYAGHRKHIAVLKKIQSKAVEQGYEDAFNFWFDKLVTKILPLKKNEIIGDRIVKLVAAFIASLERELILAKKQNYKLTNDEEGIFSRFVDQFIRHVLRGVESPDKNVRFRVLQLLAVIMDNIGEIDESLFNLLILSLNKRIYDREPTVRIQAVFCLTKFQDEEQTEHLTELSDNEENFEATRTLVASIQNDPSAEVRRAAMLNLINDNNTRPYILERARDVNIVNRRLVYSRILKSMGRKCFDDIEPHIFDQLIEWGLEDRELSVRNACKRLIAHDWLNALDGDLIELLEKLDVSRSSVCVKAIEALFQSRPDILSKIKFPESIWKDFTVEIAFLFRAIYLYCLDNNITEMLEENFPEASKLSEHLNHYILLRYHHNDISNDSQSHFDYNTLEFIIEQLSIAAERYDYSDEVGRRSMLTVVRNMLALTTLSEPLIKIGIRVMKSLSINEKDFVTMAIEIINDIRDDDIEKQEQEEKIKSKKINRRNETSVDEEDENGTHNDEVNEDEEDDNISSFHSAVENLVQGNGNVSESDIINNLPPEKEASSATIVLCLTRSSYMLELVNTPLTENILIASLMDTLITPAVRNTAPNIRELGVKNLGLCCLLDVKLAIDNMYILGMCVSKGNASLKYIALQVIVDIFSVHGNTVVDGEGKVDSISLHKIFYKVLKNNGLPECQVIAAEGLCKLFLADVFTDDDLFETLVLSYFSPINSSNEALVQAFAFCIPVYCFSHPAHQQRMSRTAADILLRLCVLWDDLQSSVIPEVDREAMLKPNIIFQQLLFWTDPRNLVNQTGSTKKDTVQLTFLIDVLKIYAQIEKKEIKKMIITNINAIFLSSEQDYSTLKELLEYSDDIAENDNLDNVSKNALDKLRNNLNSLIEEINERSETQTKDENNTANDQYSSILGNSFNKSSNDTIEHAADITDGNNTELTKTTVNISAVDNTTEQSNSRKRTRSEAEQIDTSKNLENMSIQDTSTVAKNVSFVLPDEKSDAMSIDEEDKDSESFSEVC
In the case of B1, the binding result is given as “binds”.
